Target: Haemagglutinin (HA) of influenza A/Delaware/55/2019 (H1N1), from Flucelvax monovalent drug substance (Monobulk) (influenza A virus A/Delaware/55/2019 (H1N1))
Experiment: SEC

Substance: Haemagglutinin (HA) of influenza A/Delaware/55/2019 (H1N1), from Flucelvax monovalent drug substance (Monobulk) (natural protein)
- stoichiometry N: 3

Source: PMC10073703
